Experimental data reported in the supplement of paper PMC10065799, “High-throughput profiling of sequence recognition by tyrosine kinases and SH2 domains using bacterial peptide display” (eLife, 2023).

Experiments:
SHP2-C SH2 = experiment: SH2 binding enrichment of the phosphorylated peptide, bacterial display (enrichment ratio); higher = better substrate or ligand; peptides without Tyr show the background
c-Src SH2 = experiment: as above
Grb2 SH2 = Grb2 SH2 (UniProt P62993); experiment: as above
Jak2 = Jak2 (UniProt O60674); experiment: phosphorylation enrichment, bacterial display (enrichment ratio); higher = better substrate or ligand; peptides without Tyr show the background
c-Src = experiment: as above
Hck = Hck (UniProt P08631); experiment: as above
FGFR1 = FGFR1 (UniProt P11362); experiment: as above
EPHB1 = EPHB1 (UniProt P54762); experiment: as above
FGFR3 = FGFR3 (UniProt P22607); experiment: as above
MERTK = MERTK (UniProt Q12866); experiment: as above
c-Abl (mouse) = experiment: as above
Fes = Fes (UniProt P07332); experiment: as above
Fyn = Fyn (UniProt P06241); experiment: as above
Fer (mouse) = experiment: as above
EPHB2 = EPHB2 (UniProt P29323); experiment: as above
AncSZ = experiment: as above
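For SH2 binding enrichment of the phosphorylated peptide, bacterial display in this document: peptide library displayed on the E. coli surface as eCPX fusions, selected cells deep-sequenced, score is each peptide's frequency after selection divided by its frequency in the input.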
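For phosphorylation enrichment, bacterial display in this document: 11-residue human phosphosite peptides and single-mutation variants displayed on the E. coli surface, counted by deep sequencing, each peptide's frequency after selection divided by its frequency in the unselected input library; frequency after pTyr selection over input frequency; kinase dosed for 20-30% of maximal phosphorylation in three min.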

Chain of EPHB1 (P54762 whole entry, looked up): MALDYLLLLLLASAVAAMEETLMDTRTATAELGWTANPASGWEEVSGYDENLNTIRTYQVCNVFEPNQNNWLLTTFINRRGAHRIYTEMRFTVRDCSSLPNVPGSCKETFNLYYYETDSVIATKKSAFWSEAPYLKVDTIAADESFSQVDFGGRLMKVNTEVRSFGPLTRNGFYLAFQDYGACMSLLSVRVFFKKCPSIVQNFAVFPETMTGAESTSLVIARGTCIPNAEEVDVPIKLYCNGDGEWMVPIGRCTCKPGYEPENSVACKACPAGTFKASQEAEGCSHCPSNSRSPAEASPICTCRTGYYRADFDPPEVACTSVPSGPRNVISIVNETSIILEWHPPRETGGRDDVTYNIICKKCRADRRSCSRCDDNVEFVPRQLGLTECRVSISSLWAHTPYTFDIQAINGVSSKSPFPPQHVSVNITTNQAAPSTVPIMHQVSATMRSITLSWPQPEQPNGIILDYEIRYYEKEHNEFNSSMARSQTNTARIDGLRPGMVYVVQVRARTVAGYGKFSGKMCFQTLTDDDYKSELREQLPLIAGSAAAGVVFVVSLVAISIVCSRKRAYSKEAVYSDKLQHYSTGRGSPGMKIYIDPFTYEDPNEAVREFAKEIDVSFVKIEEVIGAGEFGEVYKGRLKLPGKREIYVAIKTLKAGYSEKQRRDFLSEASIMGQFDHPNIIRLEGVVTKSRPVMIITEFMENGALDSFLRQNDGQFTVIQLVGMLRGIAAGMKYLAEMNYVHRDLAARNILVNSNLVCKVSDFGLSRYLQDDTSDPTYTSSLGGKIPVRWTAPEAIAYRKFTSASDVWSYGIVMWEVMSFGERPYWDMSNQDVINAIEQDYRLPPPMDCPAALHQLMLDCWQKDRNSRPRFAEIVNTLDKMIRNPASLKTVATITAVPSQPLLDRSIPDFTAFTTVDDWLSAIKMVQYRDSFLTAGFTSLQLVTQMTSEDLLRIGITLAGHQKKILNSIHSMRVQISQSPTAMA
Chain of Fyn (P06241 whole entry, looked up): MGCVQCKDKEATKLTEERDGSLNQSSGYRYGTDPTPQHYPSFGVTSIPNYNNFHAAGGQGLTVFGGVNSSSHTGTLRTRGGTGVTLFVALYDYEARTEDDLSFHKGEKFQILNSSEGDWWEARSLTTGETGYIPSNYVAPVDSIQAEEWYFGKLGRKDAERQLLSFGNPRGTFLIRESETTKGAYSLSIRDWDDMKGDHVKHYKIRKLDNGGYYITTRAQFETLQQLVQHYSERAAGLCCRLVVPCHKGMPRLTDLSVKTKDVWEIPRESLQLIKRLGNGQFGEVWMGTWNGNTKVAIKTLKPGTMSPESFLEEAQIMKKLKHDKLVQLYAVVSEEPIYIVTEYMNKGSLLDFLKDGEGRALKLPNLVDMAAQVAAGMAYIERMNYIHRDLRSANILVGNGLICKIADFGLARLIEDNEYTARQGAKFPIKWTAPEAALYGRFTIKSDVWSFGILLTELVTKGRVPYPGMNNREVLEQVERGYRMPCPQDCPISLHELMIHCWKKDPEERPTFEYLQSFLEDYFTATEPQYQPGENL
Chain of Jak2 (O60674 whole entry, looked up): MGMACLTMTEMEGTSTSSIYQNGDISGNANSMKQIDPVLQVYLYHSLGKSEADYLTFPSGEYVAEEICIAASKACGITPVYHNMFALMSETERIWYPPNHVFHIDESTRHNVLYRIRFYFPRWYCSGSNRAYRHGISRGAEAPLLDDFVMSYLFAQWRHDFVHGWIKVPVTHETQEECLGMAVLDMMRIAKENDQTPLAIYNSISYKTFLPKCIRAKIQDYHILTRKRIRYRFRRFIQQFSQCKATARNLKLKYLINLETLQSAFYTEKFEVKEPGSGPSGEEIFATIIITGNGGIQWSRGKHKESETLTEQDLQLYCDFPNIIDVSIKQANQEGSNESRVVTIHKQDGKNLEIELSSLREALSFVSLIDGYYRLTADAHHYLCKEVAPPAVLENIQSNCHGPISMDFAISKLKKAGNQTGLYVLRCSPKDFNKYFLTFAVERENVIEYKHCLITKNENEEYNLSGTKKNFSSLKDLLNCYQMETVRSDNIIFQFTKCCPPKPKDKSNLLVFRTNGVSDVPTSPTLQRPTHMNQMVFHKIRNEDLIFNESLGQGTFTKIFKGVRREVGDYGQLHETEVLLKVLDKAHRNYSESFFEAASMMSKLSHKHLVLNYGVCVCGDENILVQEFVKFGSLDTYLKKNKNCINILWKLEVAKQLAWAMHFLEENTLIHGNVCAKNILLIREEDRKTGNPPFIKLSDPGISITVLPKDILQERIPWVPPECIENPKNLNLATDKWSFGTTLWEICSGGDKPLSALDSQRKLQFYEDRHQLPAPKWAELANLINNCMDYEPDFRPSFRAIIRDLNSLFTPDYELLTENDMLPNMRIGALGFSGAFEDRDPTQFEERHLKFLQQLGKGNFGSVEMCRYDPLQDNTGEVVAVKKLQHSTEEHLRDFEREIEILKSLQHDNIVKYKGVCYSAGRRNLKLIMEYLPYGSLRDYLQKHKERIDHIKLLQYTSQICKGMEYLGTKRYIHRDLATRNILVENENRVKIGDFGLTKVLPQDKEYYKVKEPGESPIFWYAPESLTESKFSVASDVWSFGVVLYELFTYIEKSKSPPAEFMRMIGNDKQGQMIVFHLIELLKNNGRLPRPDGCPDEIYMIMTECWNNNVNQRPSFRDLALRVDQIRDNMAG
Chain of MERTK (Q12866 whole entry, looked up): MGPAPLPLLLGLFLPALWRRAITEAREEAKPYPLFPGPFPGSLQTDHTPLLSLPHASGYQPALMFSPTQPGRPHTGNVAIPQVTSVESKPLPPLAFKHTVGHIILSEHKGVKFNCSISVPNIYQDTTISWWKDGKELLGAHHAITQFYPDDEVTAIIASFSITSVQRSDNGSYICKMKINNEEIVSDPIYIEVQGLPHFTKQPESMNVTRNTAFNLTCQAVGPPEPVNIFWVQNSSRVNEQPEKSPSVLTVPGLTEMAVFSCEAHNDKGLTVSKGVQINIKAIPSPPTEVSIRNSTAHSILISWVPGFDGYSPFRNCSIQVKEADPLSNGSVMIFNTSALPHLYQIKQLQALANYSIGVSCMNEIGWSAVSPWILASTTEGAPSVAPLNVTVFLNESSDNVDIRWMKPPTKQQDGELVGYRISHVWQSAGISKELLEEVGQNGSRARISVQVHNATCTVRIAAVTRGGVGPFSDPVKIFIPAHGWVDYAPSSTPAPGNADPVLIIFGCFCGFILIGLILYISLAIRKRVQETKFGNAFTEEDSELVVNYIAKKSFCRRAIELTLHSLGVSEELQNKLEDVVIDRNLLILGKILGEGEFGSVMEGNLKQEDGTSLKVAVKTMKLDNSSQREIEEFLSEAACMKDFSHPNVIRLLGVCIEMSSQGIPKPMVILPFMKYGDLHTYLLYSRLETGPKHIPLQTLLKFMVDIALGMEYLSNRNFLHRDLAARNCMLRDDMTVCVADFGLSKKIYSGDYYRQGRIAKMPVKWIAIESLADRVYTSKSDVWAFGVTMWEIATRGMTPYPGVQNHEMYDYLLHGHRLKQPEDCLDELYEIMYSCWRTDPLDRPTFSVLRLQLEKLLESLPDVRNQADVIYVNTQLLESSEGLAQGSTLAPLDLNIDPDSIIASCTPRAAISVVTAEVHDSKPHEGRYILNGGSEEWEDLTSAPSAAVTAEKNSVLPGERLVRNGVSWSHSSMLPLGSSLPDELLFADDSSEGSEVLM
Chain of EPHB2 (P29323 whole entry, looked up): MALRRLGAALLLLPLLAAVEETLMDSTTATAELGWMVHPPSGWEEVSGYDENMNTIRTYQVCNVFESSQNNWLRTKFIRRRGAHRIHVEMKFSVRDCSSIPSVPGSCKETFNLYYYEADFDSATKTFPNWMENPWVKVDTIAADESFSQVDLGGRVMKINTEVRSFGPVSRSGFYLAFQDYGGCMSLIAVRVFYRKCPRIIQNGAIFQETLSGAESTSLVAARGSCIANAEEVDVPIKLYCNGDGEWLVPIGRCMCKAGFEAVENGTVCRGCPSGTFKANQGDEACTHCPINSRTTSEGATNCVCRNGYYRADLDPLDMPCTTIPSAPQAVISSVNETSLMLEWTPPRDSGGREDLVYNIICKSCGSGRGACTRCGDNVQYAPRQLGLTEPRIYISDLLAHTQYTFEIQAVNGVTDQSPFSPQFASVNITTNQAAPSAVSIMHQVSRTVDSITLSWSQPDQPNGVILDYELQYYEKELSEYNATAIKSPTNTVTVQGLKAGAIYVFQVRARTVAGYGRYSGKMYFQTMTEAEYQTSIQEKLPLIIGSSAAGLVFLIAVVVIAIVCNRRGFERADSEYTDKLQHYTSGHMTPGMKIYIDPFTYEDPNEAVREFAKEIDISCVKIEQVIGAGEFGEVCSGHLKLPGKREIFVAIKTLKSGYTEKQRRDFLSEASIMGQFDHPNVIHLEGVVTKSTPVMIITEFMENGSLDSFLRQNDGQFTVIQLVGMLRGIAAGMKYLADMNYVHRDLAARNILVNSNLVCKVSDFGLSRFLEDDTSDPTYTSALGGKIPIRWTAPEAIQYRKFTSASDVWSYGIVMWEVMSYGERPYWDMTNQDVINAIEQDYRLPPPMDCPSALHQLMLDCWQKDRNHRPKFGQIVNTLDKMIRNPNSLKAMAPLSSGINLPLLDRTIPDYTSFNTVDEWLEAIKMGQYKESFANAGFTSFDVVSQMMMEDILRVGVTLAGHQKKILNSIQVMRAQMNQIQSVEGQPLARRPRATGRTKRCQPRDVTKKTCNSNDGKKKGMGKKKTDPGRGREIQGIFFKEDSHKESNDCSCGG

| Sequence | SH2 binding enrichment (SHP2-C SH2) | SH2 binding enrichment (c-Src SH2) | SH2 binding enrichment (Grb2 SH2) | phosphorylation enrichment (Jak2) | phosphorylation enrichment (c-Src) | phosphorylation enrichment (Hck) | phosphorylation enrichment (FGFR1) | phosphorylation enrichment (EPHB1) | phosphorylation enrichment (FGFR3) | phosphorylation enrichment (MERTK) | phosphorylation enrichment (c-Abl (mouse)) | phosphorylation enrichment (Fes) | phosphorylation enrichment (Fyn) | phosphorylation enrichment (Fer (mouse)) | phosphorylation enrichment (EPHB2) | phosphorylation enrichment (AncSZ) |
| --- | --- | --- | --- | --- | --- | --- | --- | --- | --- | --- | --- | --- | --- | --- | --- | --- |
| LDAFIYDAAVL [GRIN2A_Y730] | 0.935 | 0.519 | 1.14 | 0.827 | 6.55 | 7.32 | 0.879 | 2.63 | 0.868 | 3.04 | 6.28 | 1.53 | 9.56 | 20.3 | 3 | 1.18 |
| LDFNEYFRGLN [HPRT1_Y198_D201G_YF] | 1.08 | 0.862 | 1.17 | 1.92 | 0.595 | 0.873 | 0.788 | 0.832 | 0.933 | 0.714 | 0.799 | 1.45 | 0.746 | 0.62 | 1.41 | 1.29 |
| LEQGEYALRSH [HADHB_Y244_D242G] | 0.788 | 0.55 | 0.752 | 0.855 | 0.681 | 0.697 | 0.736 | 0.521 | 0.505 | 0.567 | 0.815 | 0.993 | 0.747 | 0.564 | 0.556 | 0.935 |
| LERYIYNREEL [HLA-DPB1_Y59_F64L] | 0.709 | 0.852 | 0.914 | 0.731 | 1.93 | 1.55 | 0.41 | 0.653 | 0.58 | 0.371 | 0.777 | 0.944 | 0.987 | 0.444 | 0.407 | 0.713 |
| LFEDCYLLGTS [ASS1_Y87_R86C_YF] | 0.924 | 0.647 | 1.24 | 1.39 | 1.6 | 0.58 | 0.895 | 0.572 | 1.15 | 0.442 | 1.17 | 1.5 | 1.01 | 0.752 | 0.716 | 2.1 |
| LFNQDYPIHCV [GATM_Y227_S231C_YF] | 0.806 | 0.407 | 0.446 | 1.17 | 0.33 | 0.555 | 4.54 | 1.32 | 2.52 | 0.729 | 1.11 | 1.49 | 0.777 | 1.03 | 0.889 | 1.43 |
| LGNFNYEQRGA [API5_Y497] | 0.487 | 0.462 | 0.87 | 0.919 | 0.43 | 0.485 | 0.569 | 0.474 | 0.507 | 0.392 | 0.715 | 0.986 | 0.435 | 0.408 | 0.456 | 0.761 |
| LIFVSYDDWDF [GRIN2A_Y281_S278F_YF] | 1.53 | 1.01 | 1.68 | 4.29 | 1.79 | 1.1 | 1.38 | 2.23 | 2.55 | 2.03 | 2.77 | 4.34 | 1.02 | 17.4 | 2.89 | 4.68 |
| LKDEDYLKDIV [HAUS3_Y582] | 0.983 | 0.455 | 0.912 | 2.87 | 1.02 | 0.787 | 1.04 | 0.861 | 0.988 | 0.884 | 1.64 | 1.85 | 0.791 | 1.4 | 0.843 | 2.21 |
| LKKKQYTSIHH [APP_Y728] | 2.63 | 1.89 | 1.53 | 0.949 | 1.03 | 0.869 | 0.631 | 0.739 | 0.903 | 0.508 | 1.39 | 0.787 | 0.92 | 0.688 | 0.605 | 0.631 |
| LKTNWYNNGKD [DNMT3B_Y404_C403W] | 1.12 | 0.464 | 1.17 | 1.18 | 0.838 | 1.01 | 0.664 | 0.468 | 1.05 | 0.736 | 1.62 | 1.44 | 0.544 | 0.644 | 0.688 | 1.54 |
| LLTALYFISRG [KCNH2_Y780] | 1.99 | 2.43 | 2.34 | 1.25 | 1.81 | 1.24 | 0.8 | 0.645 | 0.71 | 3.27 | 1.05 | 1.69 | 0.732 | 0.716 | 0.859 | 1.57 |
| LMLVLYGRIFL [HTR1A_Y215_R220L] | 0.776 | 0.556 | 1.16 | 1.28 | 0.778 | 0.654 | 0.851 | 1.11 | 0.968 | 0.651 | 0.996 | 1.93 | 0.433 | 0.745 | 0.692 | 1.11 |
| LPIQTYSALNF [DES_Y423] | 0.834 | 1.08 | 0.735 | 1.27 | 8 | 18.9 | 2.1 | 14.3 | 2.07 | 15.9 | 1.59 | 1.24 | 13.8 | 11.1 | 11.7 | 1.01 |

Now from value to sequence, other results behind:

| SH2 binding enrichment (SHP2-C SH2) | SH2 binding enrichment (c-Src SH2) | SH2 binding enrichment (Grb2 SH2) | Sequence | phosphorylation enrichment (Jak2) | phosphorylation enrichment (c-Src) | phosphorylation enrichment (Hck) | phosphorylation enrichment (FGFR1) | phosphorylation enrichment (EPHB1) | phosphorylation enrichment (FGFR3) | phosphorylation enrichment (MERTK) | phosphorylation enrichment (c-Abl (mouse)) | phosphorylation enrichment (Fes) | phosphorylation enrichment (Fyn) | phosphorylation enrichment (Fer (mouse)) | phosphorylation enrichment (EPHB2) | phosphorylation enrichment (AncSZ) |
| --- | --- | --- | --- | --- | --- | --- | --- | --- | --- | --- | --- | --- | --- | --- | --- | --- |
| 0.614 | 1.37 | 0.881 | LARDMYDKEYY [MET_Y1230] | 1.41 | 0.673 | 0.765 | 0.921 | 0.815 | 0.973 | 0.449 | 0.652 | 1.43 | 0.624 | 0.71 | 0.627 | 1.83 |
| 0.752 | 0.486 | 0.826 | LEQQKYTVTID [IKBKB_Y199_V203I] | 1.02 | 0.569 | 0.682 | 0.75 | 0.932 | 0.975 | 0.602 | 0.696 | 1.57 | 0.638 | 0.518 | 0.81 | 1.27 |
| 0.657 | 0.841 | 0.811 | LGGAMYYLEAE [PKHD1_Y452] | 1.42 | 2.14 | 1.4 | 2.22 | 1.62 | 2.46 | 1.74 | 1.2 | 1.61 | 2.54 | 0.667 | 1.25 | 1.42 |
| 0.95 | 1 | 0.986 | LGRTRYQDVTG [MIPEP_Y510_H512D] | 0.888 | 0.584 | 0.336 | 0.525 | 0.62 | 0.665 | 0.722 | 0.799 | 0.735 | 0.586 | 0.563 | 0.548 | 0.899 |
| 0.675 | 0.414 | 0.695 | LICRRYLVMQR [IL3RA_Y328_V323L] | 2.35 | 1.01 | 0.729 | 0.926 | 0.827 | 0.834 | 1.01 | 1.22 | 2.01 | 0.564 | 0.956 | 1.72 | 2.5 |
| 0.734 | 0.551 | 0.603 | LIDTVYSSSSA [OR4C12_Y71] | 1.19 | 3.25 | 3.42 | 0.979 | 0.757 | 1.32 | 0.641 | 1.03 | 1.57 | 3.74 | 0.96 | 0.782 | 1.06 |
| 0.721 | 0.531 | 0.757 | LKMLVYLDMSK [LRRC7_Y234] | 1.24 | 0.441 | 0.559 | 0.347 | 1.01 | 1.13 | 0.545 | 1.18 | 1.72 | 0.654 | 0.475 | 0.805 | 1.36 |
| 1.18 | 1.23 | 1.4 | LKRIAYFLCLL [LGI1_Y21] | 1.09 | 0.484 | 0.394 | 0.696 | 0.64 | 0.741 | 0.424 | 0.821 | 1.53 | 0.506 | 0.714 | 0.536 | 1.05 |
| 1.9 | 1.14 | 1.69 | LLLLFYVVRFC [MPZ_Y177_YF] | 0.664 | 0.726 | 0.472 | 1.47 | 0.741 | 0.742 | 0.805 | 0.863 | 1.21 | 0.637 | 1.14 | 0.443 | 0.918 |
| 0.803 | 1.27 | 0.805 | LLQAEYWHDPI [PPT1_Y185_V181L] | 1.55 | 0.864 | 0.667 | 4.99 | 0.682 | 3.92 | 0.726 | 1.62 | 1.96 | 0.975 | 0.74 | 0.511 | 1.89 |
| 1.84 | 1.57 | 1.82 | LLVVLCKFRCF [PSEN1_Y154_Y154C_YF] | 1.82 | 1.48 | 0.887 | 0.648 | 0.619 | 0.999 | 0.984 | 1.23 | 1.73 | 0.731 | 0.722 | 0.694 | 1.4 |
| 0.53 | 0.415 | 0.761 | LNERHYGGLTG [PGAM2_Y92] | 4.09 | 0.47 | 0.454 | 0.607 | 0.417 | 0.552 | 0.527 | 0.789 | 0.856 | 0.53 | 0.394 | 0.432 | 0.679 |
| 0.538 | 0.704 | 0.958 | LPEHPYHSRPR [NDUFA8_Y142_N140H] | 0.823 | 1.27 | 1.9 | 1.02 | 0.861 | 2.71 | 1.17 | 0.828 | 3.08 | 2.04 | 1.03 | 1.57 | 1.97 |
| 0.637 | 0.561 | 1.03 | LPENPYHSRPR [NDUFA8_Y142] | 0.552 | 1.8 | 0.916 | 0.442 | 0.3 | 0.408 | 0.415 | 0.761 | 0.632 | 0.72 | 0.384 | 0.41 | 0.643 |
| 0.795 | 0.406 | 1.02 | LPKDLYLISQM [LARP4_Y141_S137P] | 1.46 | 0.788 | 0.891 | 1.15 | 0.784 | 1.55 | 0.785 | 1.2 | 2.13 | 0.69 | 0.646 | 0.757 | 2.15 |
